B1: Ribonuclease, P00648 (parent)
chain: MMKMEGIALKKRLSWISVCLLVLVSAAGMLFSTAAKTETSSHKAHTEAQVINTFDGVADYLQTYHKLPDNYITKSEAQALGWVASKGNLADVAPGKSIGGDIFSNREGKLPGKSGRTWREADINYTSGFRNSDRILYSSDWLIYKTTDHYQTFTKIR

Variants of: B1
Conditions: Bacillus amyloliquefaciens; pH 6.3; 25 °C; Urea; Fluorescence; MES 19.3 mM; reversible: yes; structure 1BNI; whole UniProt chain shown

Q: With T53D as the variant, how does the “ddG of mutation (higher = less stable)” value read?
A: -0.11 kcal/mol

Q: With T53E as the variant, how does the “ddG of mutation (higher = less stable)” value read?
A: 0.27 kcal/mol

Q: Which “ddG of mutation (higher = less stable)” value does the source give for T53A here?
A: 2.53 kcal/mol

Q: With T53G as the variant, how does the “ddG of mutation (higher = less stable)” value read?
A: 1.34 kcal/mol

Q: For T53N, which “ddG of mutation (higher = less stable)” value is on record?
A: 1.27 kcal/mol

Q: For T53Q, which “ddG of mutation (higher = less stable)” value is on record?
A: 1.87 kcal/mol

Q: Which “ddG of mutation (higher = less stable)” value does the source give for T53S here?
A: 0.22 kcal/mol

Q: For T73E, which “ddG of mutation (higher = less stable)” value is on record?
A: 0.05 kcal/mol

Q: With T73Q as the variant, how does the “ddG of mutation (higher = less stable)” value read?
A: 1.72 kcal/mol

Q: Which “ddG of mutation (higher = less stable)” value does the source give for T73N here?
A: 1.29 kcal/mol

Q: With T73G as the variant, how does the “ddG of mutation (higher = less stable)” value read?
A: 1.58 kcal/mol

Q: With T73V as the variant, how does the “ddG of mutation (higher = less stable)” value read?
A: 2.31 kcal/mol

Q: Which “ddG of mutation (higher = less stable)” value does the source give for T73A here?
A: 2.11 kcal/mol
